Test results published in US11773160.

Columns and labels:
[1] = target: trimeric IL-2 receptor on HEK-Blue IL-2 reporter cells (UniProt P01589); assay: cell-based or functional assay
[2] = target: IL-2R on murine splenocytes (C57BL/6); assay: cell-based or functional assay

Chain of trimeric IL-2 receptor on HEK-Blue IL-2 reporter cells (P01589 22-272 limits assumed, chain 1 of 3): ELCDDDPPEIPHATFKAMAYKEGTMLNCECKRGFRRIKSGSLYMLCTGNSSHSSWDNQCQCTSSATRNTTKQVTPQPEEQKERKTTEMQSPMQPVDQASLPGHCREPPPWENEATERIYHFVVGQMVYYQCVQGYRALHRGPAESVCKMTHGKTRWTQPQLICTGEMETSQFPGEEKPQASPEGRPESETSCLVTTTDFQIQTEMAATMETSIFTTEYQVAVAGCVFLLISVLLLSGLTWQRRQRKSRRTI
Chain of trimeric IL-2 receptor on HEK-Blue IL-2 reporter cells (P14784 27-551 limits assumed, chain 2 of 3, further chain): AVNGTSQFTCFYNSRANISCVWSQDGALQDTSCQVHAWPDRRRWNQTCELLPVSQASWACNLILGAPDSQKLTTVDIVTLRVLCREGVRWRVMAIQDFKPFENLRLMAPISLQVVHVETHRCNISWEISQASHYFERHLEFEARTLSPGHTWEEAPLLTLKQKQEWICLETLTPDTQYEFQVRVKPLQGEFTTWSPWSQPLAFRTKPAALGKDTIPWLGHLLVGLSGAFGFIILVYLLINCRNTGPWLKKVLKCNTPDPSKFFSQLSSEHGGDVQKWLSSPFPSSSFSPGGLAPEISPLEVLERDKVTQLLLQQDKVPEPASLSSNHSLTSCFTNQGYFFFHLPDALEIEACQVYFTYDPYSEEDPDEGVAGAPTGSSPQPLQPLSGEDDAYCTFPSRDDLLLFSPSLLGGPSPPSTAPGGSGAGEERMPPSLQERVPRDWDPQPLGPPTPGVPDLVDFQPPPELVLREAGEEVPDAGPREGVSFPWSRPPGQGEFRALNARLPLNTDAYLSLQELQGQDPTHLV
Chain of trimeric IL-2 receptor on HEK-Blue IL-2 reporter cells (P31785 23-369 limits assumed, chain 3 of 3, further chain): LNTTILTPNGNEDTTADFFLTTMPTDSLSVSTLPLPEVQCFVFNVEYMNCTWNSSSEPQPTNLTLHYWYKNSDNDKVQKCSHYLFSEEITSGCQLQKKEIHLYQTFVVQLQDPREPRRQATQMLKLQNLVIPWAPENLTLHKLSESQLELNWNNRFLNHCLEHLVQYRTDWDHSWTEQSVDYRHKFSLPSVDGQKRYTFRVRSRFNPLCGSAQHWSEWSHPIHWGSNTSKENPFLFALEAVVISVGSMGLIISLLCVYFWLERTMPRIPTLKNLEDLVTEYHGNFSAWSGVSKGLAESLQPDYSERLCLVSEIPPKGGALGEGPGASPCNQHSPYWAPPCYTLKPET

- EC50 (M), SEAP of HEK-Blue IL-2 reporter cells [1]: 4.28e-12 M
- EC50 CD8 cells (nM), pSTAT5 MFI [2]: 4.1 nM
- EC50 NK cells (nM), pSTAT5 MFI [2]: 1.4 nM
- EC50 Treg cells (nM), pSTAT5 MFI [2]: < 0.016 nM
Substance: Proleukin (aldesleukin) (from UniProt P60568 22-153) (ligand)
